Experimental findings from article PMC6721657 are described below.

This assay addresses full length extracellular fragment of FGFR1-IIIc fused to the Fc (UniProt P11362). As to the kind of experiment: BLI; FGFR1c-Fc loaded on Protein A biosensors (20 μg/mL, 600 s); FGF1 proteins 100 to 800 nM in solution; PBS, 25 °C, 1000 rpm; global fit with the 2:1 heterogeneous ligand model and steady state analysis; three independent experiments. On the technique in general: Biolayer interferometry detects binding as a change in optical thickness at a sensor tip.
Chain of UniProt P11362 (P11362 22-376): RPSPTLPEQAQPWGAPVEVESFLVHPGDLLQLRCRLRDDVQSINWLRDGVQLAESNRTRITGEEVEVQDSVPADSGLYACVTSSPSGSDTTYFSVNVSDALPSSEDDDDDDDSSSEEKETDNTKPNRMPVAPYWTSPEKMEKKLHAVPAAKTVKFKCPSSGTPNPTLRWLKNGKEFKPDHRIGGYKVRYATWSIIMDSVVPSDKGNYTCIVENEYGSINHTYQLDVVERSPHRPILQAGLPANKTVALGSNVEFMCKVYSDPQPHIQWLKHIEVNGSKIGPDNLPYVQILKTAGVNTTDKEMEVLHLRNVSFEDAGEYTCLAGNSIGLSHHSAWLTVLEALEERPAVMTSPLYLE
Turning to “FGF1 Q40P/S47I/H93G variant (Ala-FGF1 21-154) (ligand)”, the KD1 (2:1 heterogeneous ligand model) turned out to be 1.02e-07 and the KD2 (2:1 heterogeneous ligand model) was determined as 1.05e-07.

With “FGF1 R35E mutant (Ala-FGF1 21-154) (ligand)”, the KD1 (2:1 heterogeneous ligand model) was 291 nM and the KD2 (2:1 heterogeneous ligand model) came to 152 nM.

The substance “FGF1 R35E/Q40P/S47I/H93G mutant (Ala-FGF1 21-154) (ligand)” registered a KD1 (2:1 heterogeneous ligand model) of 477 nM and a KD2 (2:1 heterogeneous ligand model) of 690 nM.

Regarding “wild-type fibroblast growth factor 1, truncated form (Ala-FGF1 21-154) (ligand)”, the KD1 (2:1 heterogeneous ligand model) was 46.9 nM and the KD2 (2:1 heterogeneous ligand model) stood at 75.6 nM.
